Four sequences from the Immune Epitope Database (IEDB) can be followed below.

One test addresses HLA-A*01:01. The test can be described thus: IEDB peptide-MHC binding, purified MHC/direct/fluorescence; filed as Kd, often an IC50 or EC50 that approximates it; ≥ and ≤ were set here for values at or beyond the usual limits of such assays.
The target in a further test is HLA-A*11:01. The description is as above.
The target of a further test is HLA-A*24:03. The description is as above. Conditions: source organism: Camelpox virus M-96.
For the next test, the target named is HLA-A*26:01. Described as above.
A further test has as its target HLA-A*26:03. The description is as above. Conditions: source organism: Variola virus.
The next test addresses HLA-A*31:01. The description is as above.
The next test addresses HLA-A*69:01. Described as above.
Another test has as its target HLA-B*08:02. The test is described as above. Particulars: source organism: Variola virus.
For test [1], the target named is HLA-B*15:01. The description is as above.
For the next test, the target named is HLA-B*58:01. The test is described as above.
Test [2] deals with HLA-A*02:01. Put plainly: IEDB peptide-MHC binding, purified MHC/competitive/fluorescence; filed as Kd, often an IC50 or EC50 that approximates it; ≥ and ≤ were set here for values at or beyond the usual limits of such assays. Conditions: source organism: Variola virus.
In another test the target is HLA-A*26:02. The description is as above. Conditions: source organism: Variola virus.
In the next test the target is HLA-A*68:02. The description is as above. Conditions: source organism: Variola virus.
The target in another test is HLA-B*07:02. The test is described as above. Conditions: source organism: Variola virus.
The target in test [3] is HLA-B*08:01. The test is described as above.
The target in test [4] is HLA-B*15:17. Described as above. Particulars: source organism: Variola virus.
The target in test [5] is HLA-B*18:01. Described as above. Particulars: source organism: Variola virus.
In test [6] the target is HLA-B*57:01. The test is described as above. Conditions: source organism: Variola virus.
For test [7], the target named is HLA-A*02:01. Put plainly: IEDB peptide-MHC binding, purified MHC/direct/fluorescence; filed as Kd, often an IC50 or EC50 that approximates it; ≥ and ≤ were set here for values at or beyond the usual limits of such assays. Particulars: source organism: Mycobacterium tuberculosis.
In a further test the target is HLA-A*03:01. The test is described as above. Particulars: source organism: Mycobacterium tuberculosis.
Test [8] deals with HLA-B*15:17. The test is described as above. Particulars: source organism: Mycobacterium tuberculosis.
Test [9] concerns the target HLA-B*18:01. Described as above. Conditions: source organism: Mycobacterium tuberculosis.
In another test the target is HLA-B*27:05. The description is as above. Particulars: source organism: Mycobacterium tuberculosis.
The target in another test is HLA-B*38:01. The description is as above. Conditions: source organism: Mycobacterium tuberculosis str. Haarlem.
Another test addresses HLA-B*39:01. Described as above. Conditions: source organism: Mycobacterium tuberculosis str. Haarlem.
In the next test the target is HLA-B*40:01. The test is described as above. Conditions: source organism: Mycobacterium tuberculosis.
In a further test the target is HLA-B*46:01. Described as above. Conditions: source organism: Mycobacterium tuberculosis.
For the next test, the target named is HLA-B*48:01. Described as above. Particulars: source organism: Mycobacterium tuberculosis.
For another test, the target named is HLA-B*51:01. The test is described as above. Conditions: source organism: Mycobacterium tuberculosis.
For test [10], the target named is HLA-B*57:01. The test is described as above. Conditions: source organism: Mycobacterium tuberculosis.
The target of test [11] is HLA-B*08:01. The description is as above. Particulars: source organism: Mycobacterium tuberculosis str. Haarlem.
A further test has as its target HLA-B*15:09. The description is as above. Particulars: source organism: Mycobacterium tuberculosis str. Haarlem.
A further test deals with HLA-A*32:15. The test can be described thus: IEDB peptide-MHC binding, purified MHC/competitive/fluorescence; filed as Kd, often an IC50 or EC50 that approximates it; ≥ and ≤ were set here for values at or beyond the usual limits of such assays. Conditions: source organism: Mycobacterium tuberculosis C.
The target in test [12] is HLA-B*15:01. The test is described as above. Particulars: source organism: Mycobacterium tuberculosis C.
Another test deals with HLA-B*15:42. The description is as above. Conditions: source organism: Mycobacterium tuberculosis C.
A further test has as its target HLA-B*45:06. The test is described as above. Particulars: source organism: Mycobacterium tuberculosis C.
The target in the next test is HLA-B*83:01. Described as above. Conditions: source organism: Mycobacterium tuberculosis C.
The mark [13] stands for this setting: source organism: Camelpox virus M-96.
[14] abbreviates: source organism: Mycobacterium tuberculosis.
Where [15] appears, read: source organism: Mycobacterium tuberculosis str. Haarlem.

EYKKFIATF: the Kd with HLA-A*01:01 (setting [13]) is no less than 20 µM; in the test with HLA-A*11:01 (setting [13]), no less than 20 µM; with HLA-A*24:03, 0.032 µM; with HLA-A*26:01 (source organism: Variola virus), no less than 20 µM; with HLA-A*26:03, no less than 20 µM; with HLA-A*31:01 (setting [13]), no less than 20 µM. Moreover, the Kd with HLA-A*69:01 (setting [13]) was no less than 20 µM; with HLA-B*08:02 it was no less than 20 µM; with HLA-B*15:01 [1] (setting [13]), no less than 20 µM; in the test with HLA-B*58:01 (source organism: Variola virus) it was 0.256 µM; in the test with HLA-A*02:01 [2] it was no less than 20 µM; in the test with HLA-A*26:02, 0.818 µM. Further, the Kd in the test with HLA-A*68:02 was no less than 20 µM; in the test with HLA-B*07:02, 3 µM; in the test with HLA-B*08:01 [3] (source organism: Variola virus), no less than 20 µM; with HLA-B*15:17 [4], 0.865 µM; with HLA-B*18:01 [5], 0.0583 µM; with HLA-B*57:01 [6] it was 4.85 µM.

Take SPRSRNRSF: the Kd with HLA-A*01:01 (setting [14]), with HLA-A*02:01 [7], in the test with HLA-A*03:01, in the test with HLA-A*11:01 (setting [14]), in the test with HLA-A*26:01 (setting [15]) and with HLA-A*31:01 (setting [14]) was no less than 20 µM in each case. Also, the Kd with HLA-A*69:01 (setting [14]), with HLA-B*15:01 [1] (setting [14]), with HLA-B*15:17 [8], in the test with HLA-B*18:01 [9], in the test with HLA-B*27:05 and with HLA-B*38:01 was no less than 20 µM each time. Moreover, the Kd with HLA-B*39:01, in the test with HLA-B*40:01, with HLA-B*46:01, in the test with HLA-B*48:01, with HLA-B*51:01 and in the test with HLA-B*57:01 [10] was no less than 20 µM each time. The Kd in the test with HLA-B*58:01 (setting [14]) was no less than 20 µM; in the test with HLA-B*08:01 [3] (source organism: Mycobacterium tuberculosis variant bovis BCG str. Pasteur 1173P2), 0.123 µM.

Take APAKKAAPA: the Kd in the test with HLA-A*01:01 (setting [14]), in the test with HLA-A*02:01 [7], with HLA-A*03:01, in the test with HLA-A*11:01 (setting [14]), in the test with HLA-A*31:01 (setting [14]) and in the test with HLA-A*69:01 (setting [14]) was no less than 20 µM throughout. Besides, the Kd with HLA-B*08:01 [11] is 0.077 µM; in the test with HLA-B*15:01 [1] (setting [14]), no less than 20 µM; in the test with HLA-B*15:17 [8], no less than 20 µM; with HLA-B*18:01 [9], no less than 20 µM; in the test with HLA-B*27:05 it was no less than 20 µM; with HLA-B*38:01, no less than 20 µM. In addition, the equilibrium dissociation constant (Kd) with HLA-B*39:01, in the test with HLA-B*40:01, with HLA-B*46:01, with HLA-B*48:01, with HLA-B*51:01 and with HLA-B*57:01 [10] was no less than 20 µM throughout. In addition, in the test with HLA-B*58:01 (setting [14]), the Kd was no less than 20 µM.

For LPAEVRAAF, the dissociation constant (Kd) was 4.61 µM with HLA-A*01:01 (setting [14]); no less than 20 µM with HLA-A*02:01 [7]; no less than 20 µM with HLA-A*03:01; no less than 20 µM with HLA-A*11:01 (setting [14]); 0.889 µM in the test with HLA-A*26:01 (setting [15]); no less than 20 µM with HLA-A*31:01 (setting [14]). For the same sequence, the Kd in the test with HLA-A*69:01 (setting [14]) is 1.31 µM; with HLA-B*15:09, no less than 20 µM; in the test with HLA-B*15:17 [8], no less than 20 µM; with HLA-B*27:05, no less than 20 µM; with HLA-B*40:01 it was no less than 20 µM; in the test with HLA-B*46:01 it was no less than 20 µM. In addition, the equilibrium dissociation constant (Kd) was no less than 20 µM with HLA-B*48:01; no less than 20 µM with HLA-B*51:01; no less than 20 µM in the test with HLA-B*57:01 [10]; no less than 20 µM with HLA-B*58:01 (setting [14]); 0.757 µM with HLA-A*32:15; no less than 20 µM with HLA-B*15:01 [12]. The values for the Kd with HLA-B*15:42, with HLA-B*45:06 and in the test with HLA-B*83:01 were no less than 5 µM, no less than 5 µM and 0.0676 µM, respectively.
